The values below come from patent publication US20140100265.

This series deals with ribosomal protein S6, P62754.

B1: hp70S6K (delC/T389E), constitutively active form of human p70S6K protein (protein)
chain: MAGVFDIDLDQPEDAGSEDELEEGGQLNESMDHGGVGPYELGMEHCEKFEISETSVNRGPEKIRPECFELLRVLGKGGYGKVFQVRKVTGANTGKIFAMKVLKKAMIVRNAKDTAHTKAERNILEEVKHPFIVDLIYAFQTGGKLYLILEYLSGGELFMQLEREGIFMEDTACFYLAEISMALGHLHQKGIIYRDLKPENIMLNHQGHVKLTDFGLCKESIHDGTVTHTFCGTIEYMAPEILMRSGHNRAVDWWSLGALMYDMLTGAPPFTGENRKKTIDKILKCKLNLPPYLTQEARDLLKKLLKRNAASRLGAGPGDAGEVQAHPFFRHINWEELLARKVEPPFKPLLQSEEDVSQFDSKFTRQTPVDSPDDSTLSESANQVFLGFEYVAPSVLES
Turning to B1, the “phosphorylation of ribosomal protein S6 (immunoperoxidase staining of SN sections after AAV transduction)” value is given as “hp70S6K(CA) induces a detectable increase in phosphorylation of ribosomal protein S6”.
